Data from patent US20190112340A1.

What was measured:
[1] = biological target: RSV F sc9 DS-Cav1 (human RSV subtype A (strain A2)); assay: D25 binding to heat-treated protein relative to the untreated protein (physical stability, FIG. 1E)
[2] = biological target: sc9-10 DS-Cav1 A149C, Y458C S46G-E92D-S215P-K465Q (A2); assay: BLI (Octet), D25 Fab binding after/before stress
[3] = biological target: RSV F sc9 DS-Cav1 (human RSV subtype A (strain A2)); assay: BLI (Octet), D25 Fab binding after/before stress
[4] = biological target: sc9-10 DS-Cav1 N183GC,N428C; assay: BLI (Octet), D25 Fab binding after/before stress
[5] = biological target: sc9-10 A DS-Cav1 A149C, Y458C; assay: BLI (Octet), D25 Fab binding after/before stress
[6] = biological target: sc9-10 DS-Cav1 A149C, Y458C S46G-S215P-K465Q (A2); assay: BLI (Octet), D25 Fab binding after/before stress
[7] = biological target: sc9-10 DS-Cav1 A149C, Y458C S46G-N67I-E92D-S215P-K465Q (A2); assay: BLI (Octet), D25 Fab binding after/before stress
sc10 DS-Cav1 [8] = assay: BLI (Octet), D25 Fab binding after/before stress
[9] = biological target: RSV F DS-Cav1 (human RSV subtype A (strain A2)) (UniProt P03420); assay: BLI (Octet), D25 Fab binding after/before stress
[10] = biological target: sc9-10 DS-Cav1 N183GC, N428C S46G-N67I-E92D-S215P-K465Q (A2); assay: BLI (Octet), D25 Fab binding after/before stress
[11] = biological target: sc9-10 DS-Cav1 A149C, Y458C S46G-E92D-S215P-K465Q (A2); assay: BLI (Octet), F on Ni-NTA tips, Fab in solution
[12] = biological target: RSV F sc9 DS-Cav1 (human RSV subtype A (strain A2)); assay: BLI (Octet), F on Ni-NTA tips, Fab in solution
[13] = biological target: sc9-10 DS-Cav1 N183GC,N428C; assay: BLI (Octet), F on Ni-NTA tips, Fab in solution
[14] = biological target: sc9-10 A DS-Cav1 A149C, Y458C; assay: BLI (Octet), F on Ni-NTA tips, Fab in solution
[15] = biological target: sc9-10 DS-Cav1 A149C, Y458C S46G-S215P-K465Q (A2); assay: BLI (Octet), F on Ni-NTA tips, Fab in solution
[16] = biological target: sc9-10 DS-Cav1 A149C, Y458C S46G-N67I-E92D-S215P-K465Q (A2); assay: BLI (Octet), F on Ni-NTA tips, Fab in solution
sc10 DS-Cav1 [17] = assay: BLI (Octet), F on Ni-NTA tips, Fab in solution
[18] = biological target: RSV F DS-Cav1 (human RSV subtype A (strain A2)) (UniProt P03420); assay: BLI (Octet), F on Ni-NTA tips, Fab in solution
[19] = biological target: sc9-10 DS-Cav1 N183GC, N428C S46G-N67I-E92D-S215P-K465Q (A2); assay: BLI (Octet), F on Ni-NTA tips, Fab in solution

D25 Fab
percent still active (site Ø retained) after 1 h at 70 °C [1]: 39% | fractional D25 reactivity, 50 °C [2]: 0.9 | fractional D25 reactivity, 70 °C [2]: 0.8 | fractional D25 reactivity, freeze-thaw [2]: 0.2 | fractional D25 reactivity, osmolality 10 mM [2]: 0.5 | fractional D25 reactivity, osmolality 3000 mM [2]: 0.6 | fractional D25 reactivity, pH 3.5 [2]: 3.8 | fractional D25 reactivity, pH 10.0 [2]: 0.6 | fractional D25 reactivity, 50 °C [3]: 0.4 | fractional D25 reactivity, 70 °C [3]: 0.4 | fractional D25 reactivity, freeze-thaw [3]: 0.2 | fractional D25 reactivity, osmolality 10 mM [3]: 0.1 | fractional D25 reactivity, osmolality 3000 mM [3]: 0.1 | fractional D25 reactivity, pH 3.5 [3]: 0.2 | fractional D25 reactivity, pH 10.0 [3]: 0.1 | fractional D25 reactivity, 10 cycles freeze/thaw with 5% glycerol [4]: 0.6 | fractional D25 reactivity, 10 cycles freeze/thaw with 10% glycerol [4]: 0.7 | fractional D25 reactivity, 50 °C [4]: 1 | fractional D25 reactivity, 70 °C [4]: 0.5 | fractional D25 reactivity, freeze-thaw [4]: 0.3 | fractional D25 reactivity, osmolality 10 mM [4]: 0.9 | fractional D25 reactivity, osmolality 3000 mM [4]: 0.4 | fractional D25 reactivity, pH 3.5 [4]: 2.6 | fractional D25 reactivity, pH 10.0 [4]: 0.7 | fractional D25 reactivity, 10 cycles freeze/thaw with 5% glycerol [5]: 0.6 | fractional D25 reactivity, 10 cycles freeze/thaw with 10% glycerol [5]: 0.9 | fractional D25 reactivity, 50 °C [5]: 1 | fractional D25 reactivity, 70 °C [5]: 0.8 | fractional D25 reactivity, freeze-thaw [5]: 0.3 | fractional D25 reactivity, osmolality 10 mM [5]: 0.7 | fractional D25 reactivity, osmolality 3000 mM [5]: 0.6 | fractional D25 reactivity, pH 3.5 [5]: 2.3 | fractional D25 reactivity, pH 10.0 [5]: 0.7 | fractional D25 reactivity, 50 °C [6]: 1 | fractional D25 reactivity, 70 °C [6]: 0.9 | fractional D25 reactivity, freeze-thaw [6]: 0.1 | fractional D25 reactivity, osmolality 10 mM [6]: 0.7 | fractional D25 reactivity, osmolality 3000 mM [6]: 0.8 | fractional D25 reactivity, pH 10.0 [6]: 0.4 | fractional D25 reactivity, 50 °C [7]: 1 | fractional D25 reactivity, 70 °C [7]: 0.9 | fractional D25 reactivity, freeze-thaw [7]: 0.1 | fractional D25 reactivity, osmolality 10 mM [7]: 0.8 | fractional D25 reactivity, osmolality 3000 mM [7]: 0.7 | fractional D25 reactivity, pH 10.0 [7]: 0.7 | fractional D25 reactivity, 50 °C (sc10 DS-Cav1 [8]): 0.3 | fractional D25 reactivity, 70 °C (sc10 DS-Cav1 [8]): 0.3 | fractional D25 reactivity, freeze-thaw (sc10 DS-Cav1 [8]): 0.1 | fractional D25 reactivity, osmolality 10 mM (sc10 DS-Cav1 [8]): 0.1 | fractional D25 reactivity, osmolality 3000 mM (sc10 DS-Cav1 [8]): 0.1 | fractional D25 reactivity, pH 3.5 (sc10 DS-Cav1 [8]): 0.2 | fractional D25 reactivity, pH 10.0 (sc10 DS-Cav1 [8]): 0.2 | fractional D25 reactivity, 50 °C [9]: 0.9 | fractional D25 reactivity, 70 °C [9]: 0 | fractional D25 reactivity, freeze-thaw [9]: 0.1 | fractional D25 reactivity, osmolality 10 mM [9]: 0.9 | fractional D25 reactivity, osmolality 3000 mM [9]: 1 | fractional D25 reactivity, pH 3.5 [9]: 0.8 | fractional D25 reactivity, pH 10.0 [9]: 0.5 | fractional D25 reactivity, 50 °C [10]: 1 | fractional D25 reactivity, 70 °C [10]: 0.9 | fractional D25 reactivity, freeze-thaw [10]: 0.2 | fractional D25 reactivity, osmolality 10 mM [10]: 0.8 | fractional D25 reactivity, osmolality 3000 mM [10]: 0.7 | fractional D25 reactivity, pH 10.0 [10]: 0.5 | Kd [11]: 200 pM | Kd [12]: 800 pM | Kd [13]: 200 pM | Kd [14]: 200 pM | Kd [15]: 100 pM | Kd [16]: 600 pM | Kd (sc10 DS-Cav1 [17]): 300 pM | Kd [18]: 150 pM | Kd [19]: 200 pM
